Assay results published in ChEMBL document CHEMBL1124237, “Linear free energy relationship studies of enzyme active site binding: thymidylate synthase” (J Med Chem, 1988).

Key:
[1] = substrate: NC(=O)c1ccc(-c2cn([C@H]3C[C@H](O)[C@@H](COP(=O)(O)O)O3)c(=O)[nH]c2=O)cc1; conditions: Mus musculus
Description: (§1) Inhibitory effect on murine leukemia (L1210) thymidylate synthase

[2] = substrate: O=c1[nH]c(=O)n([C@H]2C[C@H](O)[C@@H](COP(=O)(O)O)O2)cc1-c1ccc(O)cc1; conditions: Mus musculus
Description: as §1

[3] = substrate: N#Cc1ccc(-c2cn([C@H]3C[C@H](O)[C@@H](COP(=O)(O)O)O3)c(=O)[nH]c2=O)cc1; conditions: Mus musculus
Description: as §1

[4] = substrate: COC(=O)c1ccc(-c2cn([C@H]3C[C@H](O)[C@@H](COP(=O)(O)O)O3)c(=O)[nH]c2=O)cc1; conditions: Mus musculus
Description: as §1

[5] = substrate: NC(=O)c1ccc(-c2cn([C@H]3C[C@H](O)[C@@H](COP(=O)(O)O)O3)c(=O)[nH]c2=O)cc1; conditions: Lacticaseibacillus casei
Description: (§2) Inhibitory effect against Lactobacillus casei thymidylate synthase

[6] = substrate: O=c1[nH]c(=O)n([C@H]2C[C@H](O)[C@@H](COP(=O)(O)O)O2)cc1-c1ccc(O)cc1; conditions: Lacticaseibacillus casei
Description: as §2

[7] = substrate: N#Cc1ccc(-c2cn([C@H]3C[C@H](O)[C@@H](COP(=O)(O)O)O3)c(=O)[nH]c2=O)cc1; conditions: Lacticaseibacillus casei
Description: as §2

[8] = substrate: COC(=O)c1ccc(-c2cn([C@H]3C[C@H](O)[C@@H](COP(=O)(O)O)O3)c(=O)[nH]c2=O)cc1; conditions: Lacticaseibacillus casei
Description: as §2

[9] = substrate: NC(=O)c1ccc(-c2cn([C@H]3C[C@H](O)[C@@H](COP(=O)(O)O)O3)c(=O)[nH]c2=O)cc1; conditions: Homo sapiens
Description: (§3) Inhibitory effect on human lymphoblast (Molt/4F) thymidylate synthase

[10] = substrate: O=c1[nH]c(=O)n([C@H]2C[C@H](O)[C@@H](COP(=O)(O)O)O2)cc1-c1ccc(O)cc1; conditions: Homo sapiens
Description: as §3

[11] = substrate: N#Cc1ccc(-c2cn([C@H]3C[C@H](O)[C@@H](COP(=O)(O)O)O3)c(=O)[nH]c2=O)cc1; conditions: Homo sapiens
Description: as §3

[12] = substrate: COC(=O)c1ccc(-c2cn([C@H]3C[C@H](O)[C@@H](COP(=O)(O)O)O3)c(=O)[nH]c2=O)cc1; conditions: Homo sapiens
Description: as §3

B1: Thymidylate synthase (Mus musculus), P07607 (protein)
chain: MLVVGSELQSDAQQLSAEAPRHGELQYLRQVEHILRCGFKKEDRTGTGTLSVFGMQARYSLRDEFPLLTTKRVFWKGVLEELLWFIKGSTNAKELSSKGVRIWDANGSRDFLDSLGFSARQEGDLGPVYGFQWRHFGAEYKDMDSDYSGQGVDQLQKVIDTIKTNPDDRRIIMCAWNPKDLPLMALPPCHALCQFYVVNGELSCQLYQRSGDMGLGVPFNIASYALLTYMIAHITGLQPGDFVHTLGDAHIYLNHIEPLKIQLQREPRPFPKLKILRKVETIDDFKVEDFQIEGYNPHPTIKMEMAV
Work on B1 yielded a Km [1] of 1.28 µM, a Km [2] of 1.28 µM and a Km [3] of 1.27 µM. For the same protein, the Km [4] was 1.28 µM.

B2: Thymidylate synthase (Lactobacillus casei), P00469 (protein)
chain: MLEQPYLDLAKKVLDEGHFKPDRTHTGTYSIFGHQMRFDLSKGFPLLTTKKVPFGLIKSELLWFLHGDTNIRFLLQHRNHIWDEWAFEKWVKSDEYHGPDMTDFGHRSQKDPEFAAVYHEEMAKFDDRVLHDDAFAAKYGDLGLVYGSQWRAWHTSKGDTIDQLGDVIEQIKTHPYSRRLIVSAWNPEDVPTMALPPCHTLYQFYVNDGKLSLQLYQRSADIFLGVPFNIASYALLTHLVAHECGLEVGEFIHTFGDAHLYVNHLDQIKEQLSRTPRPAPTLQLNPDKHDIFDFDMKDIKLLNYDPYPAIKAPVAV
Protein B2 has a Km [5] of 4.01 µM, a Km [6] of 4.8 µM and a Km [7] of 4.37 µM. For the same protein, the Km [8] was 4.19 µM.

B3: Thymidylate synthase (Homo sapiens), P04818 (protein)
chain: MPVAGSELPRRPLPPAAQERDAEPRPPHGELQYLGQIQHILRCGVRKDDRTGTGTLSVFGMQARYSLRDEFPLLTTKRVFWKGVLEELLWFIKGSTNAKELSSKGVKIWDANGSRDFLDSLGFSTREEGDLGPVYGFQWRHFGAEYRDMESDYSGQGVDQLQRVIDTIKTNPDDRRIIMCAWNPRDLPLMALPPCHALCQFYVVNSELSCQLYQRSGDMGLGVPFNIASYALLTYMIAHITGLKPGDFIHTLGDAHIYLNHIEPLKIQLQREPRPFPKLRILRKVEKIDDFKAEDFQIEGYNPHPTIKMEMAV
Protein B3 has a Km [9] of 1.48 µM, a Km [10] of 1.54 µM and a Km [11] of 1.51 µM. It also gave a Km [12] of 1.38 µM.
